Results on 5 molecules are retold here after patent US20220089770A1 (Chugai, published 2022).

One assay has as its target T1, human XPR1-Myc (human, UniProt Q9UBH6 1-696).
T1 sequence: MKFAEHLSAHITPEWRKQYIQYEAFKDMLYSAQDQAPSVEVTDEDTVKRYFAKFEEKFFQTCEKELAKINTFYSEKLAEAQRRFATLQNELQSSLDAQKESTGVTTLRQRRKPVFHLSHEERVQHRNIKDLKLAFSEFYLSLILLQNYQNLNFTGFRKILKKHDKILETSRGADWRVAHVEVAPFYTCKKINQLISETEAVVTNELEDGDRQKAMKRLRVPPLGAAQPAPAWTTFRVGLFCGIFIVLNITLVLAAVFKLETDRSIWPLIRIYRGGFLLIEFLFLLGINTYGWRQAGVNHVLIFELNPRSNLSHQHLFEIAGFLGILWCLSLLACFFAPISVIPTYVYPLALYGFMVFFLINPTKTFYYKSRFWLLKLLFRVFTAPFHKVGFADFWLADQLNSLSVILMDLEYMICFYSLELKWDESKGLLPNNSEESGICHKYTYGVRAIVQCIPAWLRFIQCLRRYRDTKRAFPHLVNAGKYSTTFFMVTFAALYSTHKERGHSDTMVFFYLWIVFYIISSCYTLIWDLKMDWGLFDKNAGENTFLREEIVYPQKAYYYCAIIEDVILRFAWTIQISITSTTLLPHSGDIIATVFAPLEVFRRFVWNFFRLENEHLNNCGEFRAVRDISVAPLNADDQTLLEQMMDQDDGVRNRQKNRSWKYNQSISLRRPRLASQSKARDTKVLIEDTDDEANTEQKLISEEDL
The assay can be described thus: flow cytometry on Expi293 cells transiently expressing human XPR1-Myc against cells with empty vector; anti-human IgG Fc Alexa488. How it is done:
A plasmid vector expressing in mammalian cells full-length human XPR1 (amino acid SEQ ID NO: 1) with a Myc tag sequence ([…], SEQ ID NO: 25) added to the C-terminus (human XPR1-Myc, nucleotide SEQ ID NO: 26, amino acid SEQ ID NO: 27) was constructed. The protein was transiently expressed in Expi293 cells (Thermo Fisher Scientific) by introducing the constructed plasmid vector into Expi293 cells. At the same time, Expi293 cells transfected with an empty plasmid vector were also prepared as a control. The Expi293 cells transfected with an empty plasmid vector were stained with CellTrace FarRed (Thermo Fisher Scientific) and then mixed with the Expi293 cells made to express human XPR1-Myc, and subsequently reacted with the anti-human XPR1 antibody prepared in Example 6. […] The cells reacted with the antibody were measured by FACS Aria III (Becton, Dickinson and Company). The obtained data were analyzed by FlowJo ver.10. The live cell fraction, which was not stained with DAPI fluorescence, was separated into a fraction that was stained with CellTrace FarRed (cells transfected with the empty plasmid vector) and a fraction that was not stained with CellTrace FarRed (cells transfected with the human XPR1-Myc expression plasmid vector), and Alexa488 staining for each fraction was examined.

A further assay deals with human NOX1-Strep (human, UniProt Q9Y5S8 1-564). In words: flow cytometry on fixed, digitonin-treated Expi293 cells expressing human NOX1-Strep against cells with empty vector; anti-human IgG Fc Alexa488. As to the method:
(§1) A plasmid vector expressing human NOX1-Strep (amino acid SEQ ID NO: 34) or a plasmid vector expressing NOX1_Nx1B_564-myc (amino acid SEQ ID NO: 33) was introduced into Expi293 cells (Thermo Fisher Scientific) to express the protein transiently. At the same time, Expi293 cells transfected with an empty plasmid vector were also prepared as a control. These cells were treated with 4% paraformaldehyde and 1% digitonin. The Expi293 cells transfected with an empty plasmid vector were stained with CellTrace FarRed (Thermo Fisher Scientific), the Expi293 cells transfected with the plasmid vector expressing human NOX1-Strep were stained with CellTrace FarRed and CellTrace Violet (Thermo Fisher Scientific), and then mixed with the Expi293 cells made to express NOX1_Nx1B_564-myc. Subsequently, the cells were reacted with an anti-human NOX1 antibody prepared in Example 13.
(§2) Then, anti-human IgG Fc cross-adsorbed Alexa488 (Invitrogen) was reacted to stain the anti-human NOX1 antibody. The cells reacted with the antibody were measured by FACS Aria III (Becton, Dickinson and Company). The obtained data were analyzed by FlowJo ver.10.

Another assay addresses T2, NOX1_Nx1B_564-myc (human).
T2 construct: Expressed in Expi293 cells treated with 4% paraformaldehyde and 1% digitonin before staining; also called human NOX1
In words: flow cytometry on fixed, digitonin-treated Expi293 cells expressing NOX1_Nx1B_564-myc against cells with empty vector; anti-human IgG Fc Alexa488. How it is done:
as §1, §2

For another assay, the target named is T3, Myc-human MARVELD3 (human, UniProt Q96A59 2-401).
T3 construct: also called human MARVELD3 isoform2; MARVELD3 isoform2
T3 sequence: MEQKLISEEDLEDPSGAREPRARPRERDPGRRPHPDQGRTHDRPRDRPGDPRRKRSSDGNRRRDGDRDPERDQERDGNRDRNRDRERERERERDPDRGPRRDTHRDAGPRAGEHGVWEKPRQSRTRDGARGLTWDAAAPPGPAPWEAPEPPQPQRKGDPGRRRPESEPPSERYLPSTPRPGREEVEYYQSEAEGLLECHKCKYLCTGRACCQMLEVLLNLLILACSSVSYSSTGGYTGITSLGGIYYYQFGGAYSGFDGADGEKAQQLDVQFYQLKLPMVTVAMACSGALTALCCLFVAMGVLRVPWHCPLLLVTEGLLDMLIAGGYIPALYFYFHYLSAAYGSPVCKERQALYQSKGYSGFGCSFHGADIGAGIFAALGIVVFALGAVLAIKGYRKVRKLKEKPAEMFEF
In words: flow cytometry on Expi293 cells transiently expressing Myc-human MARVELD3 isoform2 against cells with empty vector; anti-human IgG Fc Alexa488. An excerpt:
A plasmid vector that expresses, in mammalian cells, a molecule (Myc-human MARVELD3, nucleotide SEQ ID NO: 29, amino acid SEQ ID NO: 30) in which the Myc tag sequence ([…], SEQ ID NO: 25) has been added after the N-terminal methionine of full-length human MARVELD3 isoform2 (amino acid SEQ ID NO: 4), was introduced into Expi293 cells (Thermo Fisher Scientific), and the protein was transiently expressed in the Expi293 cells. At the same time, Expi293 cells transfected with an empty plasmid vector were also prepared as a control. The Expi293 cells transfected with an empty plasmid vector were stained with CellTrace FarRed (Thermo Fisher Scientific) and then mixed with the Expi293 cells made to express human MARVELD3 isoform2, and subsequently reacted with an anti-human MARVELD3 isoform2 antibody prepared in Example 9. […] The cells reacted with the antibody were measured by FACS Aria III (Becton, Dickinson and Company). The obtained data were analyzed by FlowJo ver.10. The live cell fraction, which was not stained with DAPI fluorescence, was separated into a fraction that was stained with CellTrace FarRed (cells transfected with the empty plasmid vector) and a fraction that was not stained with CellTrace FarRed (cells transfected with the human XPR1-Myc expression plasmid vector), and Alexa488 staining for each fraction was examined.
Background: In flow cytometry, cells or beads pass a laser one at a time.

T2 sequence (chain, as listed by the source limits assumed): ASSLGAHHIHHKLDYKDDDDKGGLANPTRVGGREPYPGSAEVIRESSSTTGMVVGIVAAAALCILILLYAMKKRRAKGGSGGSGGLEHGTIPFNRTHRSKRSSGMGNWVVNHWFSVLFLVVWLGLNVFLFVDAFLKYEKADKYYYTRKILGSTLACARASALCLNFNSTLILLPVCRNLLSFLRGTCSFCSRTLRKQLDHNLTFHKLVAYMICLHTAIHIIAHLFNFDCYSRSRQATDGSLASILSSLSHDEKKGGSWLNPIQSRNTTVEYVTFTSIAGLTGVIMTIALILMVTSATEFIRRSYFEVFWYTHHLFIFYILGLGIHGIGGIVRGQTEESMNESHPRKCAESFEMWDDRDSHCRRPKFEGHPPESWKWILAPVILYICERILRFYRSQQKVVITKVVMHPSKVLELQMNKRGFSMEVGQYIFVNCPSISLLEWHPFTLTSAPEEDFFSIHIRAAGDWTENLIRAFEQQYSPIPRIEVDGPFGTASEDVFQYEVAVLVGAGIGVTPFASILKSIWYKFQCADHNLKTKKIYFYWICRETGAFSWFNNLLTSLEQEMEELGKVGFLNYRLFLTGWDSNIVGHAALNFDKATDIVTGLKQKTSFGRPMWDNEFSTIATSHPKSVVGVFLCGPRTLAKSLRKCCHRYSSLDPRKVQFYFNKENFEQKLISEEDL
human NOX1-Strep, sequence (Q9Y5S8 other isoform, or with tags, fused parts or gaps): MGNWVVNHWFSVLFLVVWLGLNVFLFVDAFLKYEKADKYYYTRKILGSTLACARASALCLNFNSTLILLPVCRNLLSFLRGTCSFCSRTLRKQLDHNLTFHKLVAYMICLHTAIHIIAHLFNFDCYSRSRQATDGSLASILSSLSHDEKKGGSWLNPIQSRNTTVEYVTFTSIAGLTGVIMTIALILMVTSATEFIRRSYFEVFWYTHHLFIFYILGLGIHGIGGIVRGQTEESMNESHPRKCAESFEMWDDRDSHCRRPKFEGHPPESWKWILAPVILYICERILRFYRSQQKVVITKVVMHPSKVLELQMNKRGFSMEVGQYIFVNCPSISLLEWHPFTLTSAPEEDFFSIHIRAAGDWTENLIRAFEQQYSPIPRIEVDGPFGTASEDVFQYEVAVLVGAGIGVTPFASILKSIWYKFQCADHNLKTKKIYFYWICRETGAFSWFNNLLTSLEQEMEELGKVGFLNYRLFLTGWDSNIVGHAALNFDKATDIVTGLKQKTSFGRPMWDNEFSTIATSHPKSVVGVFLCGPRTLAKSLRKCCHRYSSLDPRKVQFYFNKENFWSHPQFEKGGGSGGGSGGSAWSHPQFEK

B1: XPB0062 (antibody, V domains shown)
VH: QSLEESGGDLVKPGASLTLTCTASGFSFSSSYWICWVRQAPGKGLEWIACINAGNSGSTYYASWAKGRFTISKTSSTTVTLQMTSLTAADTATYFCARGSYSYGYVGYVYTTSTRLDLWGQGTLVTVSS
VL: DVVMTQTPASVSEPVGGTVTIKCQASQNIGSDLAWYQQKPGQPPKLLIYRASTLASGVSSRFKGSGSGTQFTLTISDLECADAATYYCQCTYYGSIYVPNAFGGGTEVVVK
notes: Rabbit variable regions inserted into an expression vector containing the IgG constant regions (recombinant antibody); detected with anti-human IgG Fc; also called anti-human XPR1 antibody
For B1, the binding result in the assay with human XPR1-Myc is “binds”.

B2: NXA0125 (antibody, V domains shown)
VH: QEQLEESGGDLVKPGASLTLTCTASGFSFNSNYFMCWVRQAPGKGLEWIACIYTGSSGGTYYATWAKGRFTISKTSSTTVTLQMTSLTAADTATYFCAGDTMTIPFNLWGPGTLVTVSS
VL: QVLTQTASPVSAPVGGTVTINCQASQSVYNNNNLHWFQQKPGQRPKLLIYFASTLASGVSSRFKGSGSGTQFTLTISGVQCDDAATYYCQGEFSCSSADCNAFGGGTEVVVK
notes: Rabbit variable regions inserted into an expression vector containing IgG constant regions; detected with anti-human IgG Fc; also called anti-human NOX1 antibody
For the molecule B2, the binding result in the assay with human NOX1-Strep and in the assay with NOX1_Nx1B_564-myc was “binds” each time.

B3: MDA0314 (antibody, V domains shown)
VH: QSLEESGGRLVTPGTPLTLTCTASGFSLSYYFMTWVRQAPGKGLEYIGIIRVDGSGYYATWAKGRFTISRTSTTVELKITSPTTEDTATYFCARVGDWAFNIWGPGTLVTVSS
VL: IKMTQTPASVSTAVGGTVSINCQASEDIESYLAWFQQKPGQRPKLLIYRASTLASGVSSRFKGSGSGTEFTLTISGVECADAATYYCQQGHTINNIDNVFGGGTEVVVK
notes: Rabbit variable regions inserted into an expression vector containing the IgG constant regions; detected with anti-human IgG Fc; also called anti-human MARVELD3 isoform2 antibody
With B3, the binding result with Myc-human MARVELD3 is reported as “binds”.

B4: MDA0279 (antibody, V domains shown)
VH: QSLEESGGDLVKPGGTLTLTCTASGFSFSDWYWVGWVRQAPGKGLEWIGCIVTGNGHTYYASWAKGRFTISKTSSTTVTLQLNSLTAADTATYFCARGVGASRYALWGPGTLVTVSS
VL: IVMTQTPSSKSVPVGDTVTINCQASESVASNWLSWYQQKPGQPPKLLIYFASTLASGVPSRFKGSGSGTQFTLTISDVVCDDAATYYCAGYKSDTTDGTAFGGGTEVVVK
notes: as for B3
B4: the binding result with Myc-human MARVELD3 is listed as “binds”.

B5: NXA0164 (antibody, V domains shown)
VH: QSVEESGGRLVTPGTPLTLTCTVSGFSLSNYAMSWVRQAPGKGLEWIGIISSSGSTYYASWAKGRFTISKTSTTVDLKITSPTTEDTATYFCARDLDASTGTDIWGPGTLVTVSS
VL: AVLTQTPSPVSAAVGGTVTINCQASQSVYSNNYLSWFQQKPGQPPKLLIYKASTLASGVPSRFKGSGSGTQFTLTISDVQCDDAATYYCAGDYKSSSDIRAFGGGTEVVVK
notes: as for B2
Regarding B5, the binding result with human NOX1-Strep and in the assay with NOX1_Nx1B_564-myc was “binds” in each case.
